The values that follow come from PMC3919270.

One experiment deals with Rab5 (UniProt P51148).
Another experiment addresses Rab1/Ypt1 (UniProt P01123).
UniProt P01123, sequence (P01123 whole entry): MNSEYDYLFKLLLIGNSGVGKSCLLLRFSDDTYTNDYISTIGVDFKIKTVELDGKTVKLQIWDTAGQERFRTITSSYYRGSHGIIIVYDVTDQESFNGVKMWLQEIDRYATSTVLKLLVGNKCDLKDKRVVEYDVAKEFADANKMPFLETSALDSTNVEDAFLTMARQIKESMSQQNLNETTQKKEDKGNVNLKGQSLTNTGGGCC

UniProt P51148, sequence (P51148 whole entry): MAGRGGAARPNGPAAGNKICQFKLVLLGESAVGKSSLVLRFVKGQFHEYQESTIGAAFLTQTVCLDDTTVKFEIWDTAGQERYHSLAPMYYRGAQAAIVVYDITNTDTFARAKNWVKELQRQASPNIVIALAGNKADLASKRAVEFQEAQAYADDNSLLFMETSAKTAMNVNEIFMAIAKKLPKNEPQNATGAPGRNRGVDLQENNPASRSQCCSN

On to Rabex5 (enzyme), for which the catalytic efficiency (kcat/Km) of Rabex-mediated nucleotide exchange (release of Mant-GDP from Rab5) with Rab5 was found to be 25000 M⁻¹ s⁻¹.
Take “TRAPP Bet3 E192A/D193A mutant (from UniProt P36149 1-193) (complex)”: in the experiment with Rab1/Ypt1, the GEF activity towards Rab1 (release of Mant-GDP), reduction against wild type TRAPP is 4 fold.
“TRAPPI-complex (from UniProt P36149 1-193)” returned a catalytic efficiency (kcat/Km) of TRAPP-stimulated GDP-release from Rab1/Ypt1 (release of Mant-GDP) with Rab1/Ypt1 of 130000 M⁻¹ s⁻¹.
